Experimental data from patent US20090169562A1 (CRUCELL HOLLAND B V, published 2009).

B1: SC06-049 (scFv)
scFv: QVQLVQSGAEVKKPGESLKISCKGSGYSFTSYWIGWVRQMPGKGLEWMGIIYPGDSDTRYSPSFQGQVTISADKSIGTAYLQWSSLKASDTAMYYCARLFRVRGGHFDSWGQGTLVTVSSGTGGSGGTGSGTGGSTQSALTQPASVSGSPGQSITISCTGTNSDVGGYNYVSWYQQHPGKAPKLLIYDVTNRPSGVSNRFSASKSGNTASLTISGLQAEDEADYYCSSFTSSSTRVFGGGTKLTVL
notes: Vl 137-246); also called single-chain phage antibody SC06-049
B2: SC06-043 (scFv)
scFv: EVQLVESGAEVKKPGESLKISCKGSGYSFTSYWIGWVRQMPGKGLEWMGIIYPGDSDTRYSPSFQGQVTISADKSISTAYLQWSSLKASDTAMYYCARRYCSGGTCSDGFDIWGQGTMVTVSSGTGGSGGTGSGTGGSTQSALTQPPSASGSPGQSVTISCTGTSSDVGGYNYVSWYQQHPGKAPKLMIYEVSKRPSGVPDRFSGSKSGNTASLTVSGLQAEDEADYYCSSYAGSNNLVFGGGTKLTVL
notes: Vl 140-249); also called single-chain phage antibody SC06-043

Legend:
[1] = molecular target: T1, bovine serum albumin (BSA) (bovine, UniProt P02769 25-607); assay: phage ELISA, 1% BSA coated, anti-M13-HRP detection
T1 construct: Control antigen coated at 1% in PBS (pH 7.4); also called negative control antigen
Procedure: (§1) Selected single-chain phage antibodies that were obtained in the screens described above were validated in ELISA for specific enterococcal binding activity, i.e. binding to one or more enterococcal strains prepared as described supra. 2.5×10⁸ bacteria were coated overnight at 4° C. to Maxisorp™ ELISA plates in 50 μl 50 mM carbonate buffer, pH 9.6. As negative controls, the complex antigens 2% ELK and 1% BSA both in PBS (pH 7.4) were coated. Wells were washed in PBS containing 0.1% (v/v) Tween-20 and blocked with 300 μl PBS containing 2% ELK for at least 1 hour at room temperature. The selected single-chain phage antibodies were incubated for 15 minutes in an equal volume of PBS containing 2% ELK to obtain blocked phage antibodies. The plates were emptied and the blocked single-chain phage antibodies were added to the wells. Incubation was allowed to proceed for one hour at room temperature, the plates were washed in PBS containing 0.1% (v/v) Tween-20 and bound phage antibodies were detected using an anti-M13 antibody conjugated to peroxidase. Absorbance at 492 nm was measured using a spectrophotometer. As a control, the procedure was performed simultaneously without single-chain phage antibody and with a negative control single-chain phage antibody directed against West Nile virus envelope protein (SC04-374).

[2] = molecular target: T1, bovine serum albumin (BSA); assay: phage ELISA, BSA coated
Procedure: as §1

T1 sequence (P02769 25-607 limits assumed): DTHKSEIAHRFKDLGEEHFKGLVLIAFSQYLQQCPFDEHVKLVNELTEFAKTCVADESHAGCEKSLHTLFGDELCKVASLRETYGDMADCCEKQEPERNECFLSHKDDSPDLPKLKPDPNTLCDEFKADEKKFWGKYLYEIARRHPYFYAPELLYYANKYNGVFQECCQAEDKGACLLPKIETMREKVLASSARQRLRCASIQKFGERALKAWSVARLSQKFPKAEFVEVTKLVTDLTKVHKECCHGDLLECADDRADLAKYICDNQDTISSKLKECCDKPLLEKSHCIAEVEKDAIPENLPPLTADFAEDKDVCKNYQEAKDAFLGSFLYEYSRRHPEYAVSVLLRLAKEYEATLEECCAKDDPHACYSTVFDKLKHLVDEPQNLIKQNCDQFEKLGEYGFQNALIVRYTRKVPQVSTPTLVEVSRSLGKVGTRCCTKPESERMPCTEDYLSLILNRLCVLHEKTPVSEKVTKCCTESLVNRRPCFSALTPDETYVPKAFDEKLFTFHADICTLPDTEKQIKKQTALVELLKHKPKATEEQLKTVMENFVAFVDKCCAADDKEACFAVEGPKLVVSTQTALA

Row | Binder | OD492 nm [1] [OD492 nm] | binding result [2]
1 | B1 | 0.042 | no binding
2 | B2 | 0.045 | no binding
